The results in this text go back to patent publication US20240382677A1 (Regeneron, published 2024).

The chains are these.
T1: monkey PD-1 with mFc (monkey PD-1-mFc) (monkey)
T1 construct: also called monkey PD-1 dimer; MfPD-1 dimer
T1 chain: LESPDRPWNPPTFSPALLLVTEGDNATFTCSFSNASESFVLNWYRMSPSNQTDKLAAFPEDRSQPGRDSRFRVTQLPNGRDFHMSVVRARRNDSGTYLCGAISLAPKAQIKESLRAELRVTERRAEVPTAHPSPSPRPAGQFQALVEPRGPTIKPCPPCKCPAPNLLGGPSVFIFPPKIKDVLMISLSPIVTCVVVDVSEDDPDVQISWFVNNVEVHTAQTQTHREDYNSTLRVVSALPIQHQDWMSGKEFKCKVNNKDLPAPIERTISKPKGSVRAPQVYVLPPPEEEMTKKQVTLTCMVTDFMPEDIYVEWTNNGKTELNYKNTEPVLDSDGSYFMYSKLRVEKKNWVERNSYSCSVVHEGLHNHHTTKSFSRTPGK

B1: H4xH9008P (antibody, V domains shown)
VH: EVQLVESGGGLVRPGGSLRLSCAASGFTFSTYAMAWVRQTPGKGLEGVSAIGGSGDSTYYVDSVKGRFTISRDNSKSTLFLQMNSLRAEDTAVYYCVKVRNYDGSFDIWGQGTMVTVSS
VL: not shown
notes: human IgG4 Fc with 2 or more amino acid changes (US20100331527)
B2: H4xH8992P (antibody, V domains shown)
VH: EVQLVESGGGLVQPGRSLRLSCVASGFALHDYAMHWVRQVPGKGLEWVSSISWNSGVIGYADSLKGRFTISRDNAKNSLYLQMNSLRAEDTALYYCAKGSGSYYVSWFDPWGQGTLVTVSS
VL: not shown
notes: as for B1
B3: H4xH8999P (antibody, V domains shown)
VH: QLQLQESGPGLVQPSETLSLTCTVSGDSISSTAYHWDWIRQPPGKGLEWIGTITYNGNTYFNPSLKSRVTISVDTSKNQFSLKLLSMTAAETAVFYCARHLGYNSDFFPFDFWGQGTLVTVSS
VL: not shown
notes: as for B1
B4: H4H9057P2 (antibody, V domains shown)
VH: EVQLVESGGGLVQSGRSLRLSCAASGFTFDDYAMHWVRQPPGKGLEWVSGINWNRGRTGYADSVKGRFTISRDNAKNSLYLQMNDLRVEDTALYYCAKAEQWLDEGYFDYWGQGTLVTVSS
VL: not shown
B5: H4H7798N (antibody, human IgG4 S228P, kappa, V domains shown)
VH: EVQLLESGGVLVQPGGSLRLSCAASGFTFSNFGMTWVRQAPGKGLEWVSGISGGGRDTYFADSVKGRFTISRDNSKNTLYLQMNSLKGEDTAVYYCVKWGNIYFDYWGQGTLVTVSS
VL: DIQMTQSPSSLSASVGDSITITCRASLSINTFLNWYQQKPGKAPNLLIYAASSLHGGVPSRFSGSGSGTDFTLTIRTLQPEDFATYYCQQSSNTPFTFGPGTVVDFRR
notes: human IgG4 Fc; also called REGN2810; cemiplimab
B6: H4xH9048P2 (antibody, V domains shown)
VH: QVQLVQSGAEVKRPGSSVKVSCKVSGVTFRNFAIIWVRQAPGQGLEWMGGIIPFFSAANYAQSFQGRVTITPDESTSTAFMELASLRSEDTAVYYCAREGERGHTYGFDYWGQGTLVTVSS
VL: not shown
B7: H4xH9045P (antibody, V domains shown)
VH: EVQLVESGGGLVQPGRSLRLSCAASGFTFDDYDMHWVRQAPGKGLEWVSGSGWNRGSLGYADSVKGRFTISRDNAKKSLYLQMNSVRVEDTALYYCAKGFVVVSAAYFDYWGQGTLVTVSS
VL: not shown
B8: H4xH9035P (antibody, V domains shown)
VH: EVQLVESGGRVVRPGGSLRLSCAASGFTFDDYGMSWVRQLPGKGLEWVAGISWNDGKTVYAESVKGRFIISRDNAKNSLHLEMNSLRAEDTALYYCARDWQYLIDRYFDFWGQGTLVTVSS
VL: not shown
B9: H4H7795N2 (antibody, human IgG4 S228P, kappa, V domains shown)
VH: EVQVVESGGGLVEPGRSLRLSCKASGFTFDDYAMHWVRQTPGKALEWVSGISWSGNNIGYADSVKGRFTISKDDAKNSLYLQMNSLRPEDTALYYCTKDISITGTLDAFDVWGQGTMVTVSS
VL: DIQMTQSPISVSASVGDRVTITCRASQGISNWLAWYQQKPGIAPKLLIYSASSLQSGVPSRFRGSGSGTDFTLTIGSLQPEDFATYYCQQAHSFPLTFGGGTKVEIKR
notes: human IgG4 Fc
B10: H4xH9037P (antibody, V domains shown)
VH: EVQLVESGGGLVQPGGSLRLSCAASGFTFDDYAMHWVRQAPGKGLEWVSGIGWSSGSIGYADSVKGRFTISRDNAKNSLYLQMDSLRPEDSALYYCAKAYTFMITLYFDYWGQGTLVTVSS
VL: not shown
B11: H2aM7794N (antibody, V domains shown)
VH: QLQLQESGPDLVKPSDTLSLTCTVSDDSISSTTYYWAWIRQPPGKGLEWIGSMSYNGNNYYNPSLKSRVAISAGTSQKQFSLKLTSVTAADTAVYHCARHLGYNGNWYPFDFWGQGILVTVSS
VL: not shown
notes: mouse IgG2a Fc; human variable regions; also called H2M7794N
B12: H2aM7795N (antibody, mouse IgG2a, V domains shown)
VH: B9 VH with S52N
VL: DIQMTQSPISVSASVGDRVTITCRASQGISNWLAWYQQKPGIAPKLLIYSASSLQSGVPSRFRGSGSGTDFTLTIGSLQPEDFATYYCQQAHSFPLTFGGGTKVEIK
notes: mouse IgG2a Fc; human variable regions; also called H2M7795N
B13: H2aM7796N (antibody, mouse IgG2a, V domains shown)
VH: QVQLVESGGGVVQPGRSLRLSCAASGFTFSSYGMHWVRQAPGKGLEWVAIIWSDGDSEYNLDSVKGRFTISRDNSKNTLYLQMNSLRVEDSAVYYCARDRDLEDIWGQGTMVTVSS
VL: DIQMTQSPSSLSASVGDRVTITCRASQGIRNDLGWYQQKPGKAPKRLIYAASNLQSGVPSRFSGSGSGTEFTLTISSLQPEDFATYYCLQHNSYPLTFGGGTKVEIK
notes: mouse IgG2a Fc; human variable regions; also called H2M7796N
B14: H2aM7788N (antibody, mouse IgG2a, V domains shown)
VH: EVQLVESGGGLVQPGGSLRLSCGASGFTFRNYDMHWVRQITGKGLEWVSAIGSAGDTYYPDSVKGRFTISRENAKNSLYLQMNSLRVGDTAVYYCTRDIHCSSTRCYGMDVWGQGTTVTVSS
VL: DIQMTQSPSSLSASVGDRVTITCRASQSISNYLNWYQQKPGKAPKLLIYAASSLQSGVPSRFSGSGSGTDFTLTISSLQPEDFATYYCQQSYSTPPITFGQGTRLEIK
notes: mouse IgG2a Fc; human variable regions; also called H2M7788N
B15: H2aM7791N (antibody, mouse IgG2a, V domains shown)
VH: QMQLQQWGAGLLKPSETLSLTCVVYGGSLNGYYWSWIRQSPGKGLEWIGEIDHSGSTNYNPSLKNRVTMSVDTSKIQFSLKLTSVTVADTAVYYCAREGLLPFDYWGQGTLVTVSS
VL: EIVLTQSPGTLSLSPGERVTLSCRASQSVYSNYLAWYQQNPGQAPRLLIYAASNRATGIPDRFSGSGSGTDFTLTISRLEPEDFAVYYCHQYATSPWTFGQGTKVEIK
notes: mouse IgG2a Fc; human variable regions; also called H2M7791N
B16: H1M7789N (antibody, mouse IgG1, V domains shown)
VH: EVQLLESGGGLVQPGGSLRLSCSASGFTFSSYTMNWVRQAPGKGLEWVSGISDTGGNTYYTDSVKGRFTVSRDNSKNTLSLQMNSLRAEDTAVYYCAKDQGGSYPYYFHYWGQGSLVTVSS
VL: DIQMTQSPSSLSASVGDRVTITCRASQSISSYLIWYQQKPGTAPKFLIYAASSLQSGVPSRFSGCGSGTDFTLTISSLQPEDFATYYCQQSYSTPPITFGQGTRLEIK
notes: mouse IgG1 Fc; human variable regions; also called H1M7789W

Where a chain is given by its changes, count along the chain named.

One assay addresses T1, monkey PD-1 with mFc (monkey PD-1-mFc). The assay is described as follows: SPR 37C, mAb captured.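 Also: Real-time binding of antigen to purified anti-PD-1 antibodies, measured by surface plasmon resonance on a Biacore 4000 or T200 instrument.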
Description: (§1) Binding association and dissociation rate constants (ka and kd, respectively), equilibrium dissociation constants and dissociation half-lives (KD and t½, respectively) for antigen binding to purified anti-PD1 antibodies were determined using a real-time surface plasmon resonance biosensor assay on a Biacore 4000 or Biacore T200 instrument. […] Experiments were performed at 25° C. and 37° C. Kinetic association (ka) and dissociation (kd) rate constants were determined by processing and fitting the data to a 1:1 binding model using Scrubber 2.0c curve fitting software. Binding dissociation equilibrium constants (KD) and dissociative half-lives (t½) were then calculated from the kinetic rate constants as: KD (M)=kd/ka and t½ (min)=[ln 2/(60*kd)].
Turning to B1, the “100 nM Monkey PD-1-mFc Bound” value stood at 98 RU.
B2: the “100 nM Monkey PD-1-mFc Bound” value was found to be 86 RU and the t½ came to 0.133 h.
B3: the “100 nM Monkey PD-1-mFc Bound” value was determined as 83 RU and the t½ turned out to be 0.383 h.
In the case of B4, the “100 nM Monkey PD-1-mFc Bound” value worked out at 28 RU and the t½ came to 0.04 h.
With B5, the “100 nM Monkey PD-1-mFc Bound” value was 88 RU and the t½ came out at 1.52 h.
In the case of B6, the “100 nM Monkey PD-1-mFc Bound” value is 84 RU.
In the case of B7, the “100 nM Monkey PD-1-mFc Bound” value turned out to be 65 RU and the t½ came out at 0.133 h.
In the case of B8, the “100 nM Monkey PD-1-mFc Bound” value was found to be 40 RU and the t½ came out at 0.317 h.
B9: the “100 nM Monkey PD-1-mFc Bound” value worked out at 47 RU and the t½ was found to be 0.667 h.
Take B10: the “100 nM Monkey PD-1-mFc Bound” value worked out at 24 RU.

The next assay has as its target T2, recombinant human PD-1 dimer expressed with a C-terminal mouse IgG2a Fc tag (hPD-1-mFc) (human).
T2 construct: also called human PD-1-mFc
Description: BLI Octet Red 96, captured hPD-L1-hFc.
Description: Inhibition studies for anti-PD-1 monoclonal antibodies expressed with a mouse Fc were performed on an Octet Red 96 instrument. […] The biosensors were washed in Octet HBST buffer in between each step of the experiment. The real-time binding responses were monitored during the entire course of the experiment and the binding response at the end of every step was recorded.
For B11, the “binding of the mixture of 100 nM hPD-1-mFc and 500 nM antibody” value (shortened to “binding”) was -0.01 nm.
Take B12: the “binding” value was -0.01 nm.
Regarding B13, the “binding” value was -0.02 nm.
On the same count and under the same terms, the same measure for B14: 0 nm; for B15: 0.23 nm.
Take B16: the “binding” value is 0.05 nm.

The target in another assay is T1, monkey PD-1 with mFc (monkey PD-1-mFc). The assay is described as follows: SPR 25C, mAb captured.
Description: as §1
Take B1: the t½ came to 3.33 h.
Turning to B2, the “100 nM Monkey PD-1-mFc Bound” value was found to be 122 RU and the t½ was found to be 0.767 h.
Consider B3, for which the “100 nM Monkey PD-1-mFc Bound” value is 128 RU and the t½ stood at 1.67 h.
In the case of B4, the “100 nM Monkey PD-1-mFc Bound” value amounted to 75 RU; the affinity, expressed as Kd, was 2.96 nM; the t½ came to 0.633 h.
As for B5, the “100 nM Monkey PD-1-mFc Bound” value was found to be 93 RU and the t½ is 3.13 h.
As for B6, the “100 nM Monkey PD-1-mFc Bound” value stood at 115 RU and the t½ turned out to be 1.05 h.
For B7, the “100 nM Monkey PD-1-mFc Bound” value is 78 RU and the t½ is 1.15 h.
As for B8, the “100 nM Monkey PD-1-mFc Bound” value worked out at 78 RU and the t½ was found to be 1.93 h.
Take B9: the “100 nM Monkey PD-1-mFc Bound” value was 60 RU and the t½ came out at 1.93 h.
Take B10: the “100 nM Monkey PD-1-mFc Bound” value amounted to 58 RU and the t½ turned out to be 1.4 h.
